Literature values, collected in publication PMC5686428.

Molecular target: HSV-1 glycoprotein D (soluble gD) (Herpes simplex virus type 1) (UniProt Q69091)
Test: not stated (cited)
Settings: SYBR Green assay: 1-200 nM protein, DApt (dissolved in PBS, heated 95 C 3 min, cooled on ice), 30 min, read at 520 nm; assay buffer, pH and temperature not …

Sequence of UniProt Q69091 (Q69091 26-331): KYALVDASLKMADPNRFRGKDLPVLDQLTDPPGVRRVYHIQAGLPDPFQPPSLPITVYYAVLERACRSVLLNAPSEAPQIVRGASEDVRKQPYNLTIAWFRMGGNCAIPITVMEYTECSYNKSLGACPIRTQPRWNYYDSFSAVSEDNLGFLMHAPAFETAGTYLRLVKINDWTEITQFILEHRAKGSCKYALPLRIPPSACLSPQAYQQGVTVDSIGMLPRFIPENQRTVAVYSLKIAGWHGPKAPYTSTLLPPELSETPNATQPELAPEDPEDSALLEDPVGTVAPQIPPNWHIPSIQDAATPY

## GGGCACGAGAGAGGUCGUCCCCAGGGGAGAACUCGUGCUCCUGG [mini-1 RNA aptamer]
  Kd: 4 nM
